Data on 50 sequences can be found in the supplement of paper PMC9112550, “Optimization of the antimicrobial peptide Bac7 by deep mutational scanning” (BMC Biology, 2022).

This series relates to Escherichia coli TOP10. Briefly: shrunken log2 fold change of peptide-encoding DNA abundance (4.5 h post-induction vs induction); higher = less antimicrobial activity (less host growth inhibition). As to conditions: time post-induction: 4.5 h; library: site-saturation at positions 5, 18, 19, 20.
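Further: peptides expressed intracellularly from a pBAD plasmid library in pooled LB shake-flask culture, induced with 0.3% L-arabinose, DNA abundance read by NGS, three biological replicates, DESeq2 with apeglm shrinkage.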

In the case of RRIRFRPPRLPRPRPRPVWQPRP, the “shrunken log2 fold change” value turned out to be 0.0042.

In the case of RRIRPRPPRLPRPRPRPSKQPRP, the “shrunken log2 fold change” value is -0.116.

As for RRIRDRPPRLPRPRPRPSKGPRP, the “shrunken log2 fold change” value is -0.0731.

Take RRIRQRPPRLPRPRPRPWAVPRP: the “shrunken log2 fold change” value worked out at 0.066.

As to RRIRHRPPRLPRPRPRPISRPRP, the “shrunken log2 fold change” value was -0.0532.

Take RRIRARPPRLPRPRPRPMFPPRP: the “shrunken log2 fold change” value is -0.147.

As for RRIRWRPPRLPRPRPRPPTKPRP, the “shrunken log2 fold change” value turned out to be 4.13.

On to RRIRQRPPRLPRPRPRPEEIPRP, for which the “shrunken log2 fold change” value amounted to 0.0447.

RRIRGRPPRLPRPRPRPRTAPRP: the “shrunken log2 fold change” value came out at 1.12.

For RRIRNRPPRLPRPRPRPCDHPRP, the “shrunken log2 fold change” value is -0.0208.

As for RRIRARPPRLPRPRPRPWLRPRP, the “shrunken log2 fold change” value came to 0.228.

In the case of RRIRKRPPRLPRPRPRPVLHPRP, the “shrunken log2 fold change” value was 0.484.

RRIRFRPPRLPRPRPRPAIPPRP: the “shrunken log2 fold change” value is -0.0151.

As to RRIRARPPRLPRPRPRPGVTPRP, the “shrunken log2 fold change” value was 0.611.

With RRIRLRPPRLPRPRPRPQMIPRP, the “shrunken log2 fold change” value is -0.173.

In the case of RRIRGRPPRLPRPRPRPEMQPRP, the “shrunken log2 fold change” value came out at 1.41.

On to RRIRQRPPRLPRPRPRPYLTPRP, for which the “shrunken log2 fold change” value is -0.209.

With RRIRWRPPRLPRPRPRPDHMPRP, the “shrunken log2 fold change” value is -0.128.

On to RRIRVRPPRLPRPRPRPVCSPRP, for which the “shrunken log2 fold change” value was -0.11.

On to RRIRHRPPRLPRPRPRPGQSPRP, for which the “shrunken log2 fold change” value is -0.0176.

With RRIRQRPPRLPRPRPRPLHCPRP, the “shrunken log2 fold change” value is -0.183.

For RRIRPRPPRLPRPRPRPMRGPRP, the “shrunken log2 fold change” value came to 0.887.

Consider RRIRDRPPRLPRPRPRPYDAPRP, for which the “shrunken log2 fold change” value was -0.00235.

With RRIRIRPPRLPRPRPRPGVSPRP, the “shrunken log2 fold change” value was -0.351.

Regarding RRIRKRPPRLPRPRPRPAGIPRP, the “shrunken log2 fold change” value turned out to be 0.252.

For RRIRNRPPRLPRPRPRPQDQPRP, the “shrunken log2 fold change” value was -0.222.

On to RRIRWRPPRLPRPRPRPIIEPRP, for which the “shrunken log2 fold change” value was -0.273.

Regarding RRIRVRPPRLPRPRPRPMAEPRP, the “shrunken log2 fold change” value stood at 2.52.

Consider RRIRIRPPRLPRPRPRPGQIPRP, for which the “shrunken log2 fold change” value was -0.0559.

As to RRIRDRPPRLPRPRPRPNMCPRP, the “shrunken log2 fold change” value is -0.0431.

For the sequence RRIRVRPPRLPRPRPRPAVLPRP, the “shrunken log2 fold change” value was determined as 1.75.

As to RRIRPRPPRLPRPRPRPQRLPRP, the “shrunken log2 fold change” value worked out at 0.0191.

For RRIRMRPPRLPRPRPRPEWTPRP, the “shrunken log2 fold change” value was 0.749.

RRIRNRPPRLPRPRPRPSWVPRP: the “shrunken log2 fold change” value is -0.289.

Take RRIRMRPPRLPRPRPRPIHTPRP: the “shrunken log2 fold change” value is -0.0437.

Regarding RRIRDRPPRLPRPRPRPYCRPRP, the “shrunken log2 fold change” value came to 0.0533.

As for RRIRLRPPRLPRPRPRPYNEPRP, the “shrunken log2 fold change” value is -0.78.

On to RRIRYRPPRLPRPRPRPQELPRP, for which the “shrunken log2 fold change” value is -0.00884.

Turning to RRIRDRPPRLPRPRPRPVETPRP, the “shrunken log2 fold change” value amounted to 0.222.

For the sequence RRIRNRPPRLPRPRPRPPIEPRP, the “shrunken log2 fold change” value is 0.0957.

For the sequence RRIRPRPPRLPRPRPRPFDPPRP, the “shrunken log2 fold change” value was -0.0325.

Regarding RRIRGRPPRLPRPRPRPPLVPRP, the “shrunken log2 fold change” value is 0.813.

Consider RRIRPRPPRLPRPRPRPHRNPRP, for which the “shrunken log2 fold change” value was -0.11.

Consider RRIRVRPPRLPRPRPRPPQDPRP, for which the “shrunken log2 fold change” value amounted to 0.27.

As for RRIRHRPPRLPRPRPRPACKPRP, the “shrunken log2 fold change” value was -0.164.

As to RRIRQRPPRLPRPRPRPCWLPRP, the “shrunken log2 fold change” value was 0.0947.

With RRIRVRPPRLPRPRPRPEGQPRP, the “shrunken log2 fold change” value was determined as 0.197.

Take RRIRERPPRLPRPRPRPFWRPRP: the “shrunken log2 fold change” value stood at 0.0935.

In the case of RRIRQRPPRLPRPRPRPTLAPRP, the “shrunken log2 fold change” value was found to be 0.783.

As for RRIRHRPPRLPRPRPRPKYLPRP, the “shrunken log2 fold change” value is -0.0216.
